Laboratory results as given in patent US20260028402A1 (SANYOU BIOPHARMACEUTICALS, published 2026).

Legend:
human PD-L1 on cells = molecular target: T1, human PD-L1 on cells (human, UniProt Q9NZQ7 19-290); test: flow cytometry on HCC827 cells
T1 construct: whole, on cells; Overexpressed on CHO cells or present on HCC827 tumor cells; the cell is named under assay; also called human PD-L1-CHO cells; PD-L1 protein on HCC827 cells
Experimental: The cells were resuspended in the prepared FACS buffer and counted, and the cell suspension density was adjusted to 2×10⁶ cells/mL. 100 μL of HCC827 cells were added per well to 96-well plates. The plates were centrifuged at 300 g to remove the supernatant. […] The incubated cell mixture was centrifuged at 300 g to remove the supernatant, 200 μL of FACS buffer was added to corresponding wells, and the cells were resuspended with a multichannel pipette. The centrifugation, resuspension and washing steps were repeated twice, and the cells were centrifuged at 300 g to remove the supernatant. […] The incubated cell mixture was centrifuged at 300 g to remove the supernatant, 200 μL of FACS buffer was added to corresponding wells, and the cells were resuspended with a multichannel pipette. The centrifugation, resuspension and washing steps were repeated twice, and the cells were centrifuged at 300 g to remove the supernatant. The PE-labeled anti-biotin flow antibody (Abcam) was added, and the cells were pipetted to mix with a multichannel pipette and incubated at 4° C. for 30 minutes. The cells were centrifuged at 300 g to remove the supernatant, and FACS buffer was added to resuspend the cells. The centrifugation, resuspension and washing steps were repeated twice, and 200 μL of FACS buffer was added per well to resuspend the cells.

mouse PD-L1 on cells = molecular target: T2, mouse PD-L1 on cells (mouse, UniProt Q9EP73 19-290); test: flow cytometry on mouse PD-L1-CHO cells
T2 construct: whole, on cells; also called mouse PD-L1-CHO cells
Experimental: The cells were resuspended with the prepared FACS buffer and counted, and the cell suspension density was adjusted to 2×10⁶ cells/mL. 100 μL of mouse PD-L1-CHO cells and cynomolgus monkey PD-L1-CHO cells were added per well to the 96-well plates, respectively. The plates were centrifuged at 300 g to remove the supernatant. […] The incubated cell mixture was centrifuged at 300 g to remove the supernatant, 200 μL of FACS buffer was added to corresponding wells, and the cells were resuspended with a multichannel pipette. The centrifugation, resuspension and washing steps were repeated twice, and the cells were centrifuged at 300 g to remove the supernatant. The PE-labeled anti-human IgG Fc flow antibody (Abcam, ab98596) was added, and the cells were pipetted to mix with a multichannel pipette and incubated at 4° C. for 30 minutes. The cells were centrifuged at 300 g to remove the supernatant, and FACS buffer was added to resuspend the cells. The centrifugation, resuspension and washing steps were repeated twice, and 200 μL of FACS buffer was added per well to resuspend the cells.

[1] = molecular target: T3, B7-H3 protein (Sino Biological, 11188-H08H) (UniProt Q5ZPR3 29-461); test: ELISA, protein coated at 2 ug/mL; legend: N/A: No binding activity detected
T3 construct: Bought protein
T3 sequence (looked up): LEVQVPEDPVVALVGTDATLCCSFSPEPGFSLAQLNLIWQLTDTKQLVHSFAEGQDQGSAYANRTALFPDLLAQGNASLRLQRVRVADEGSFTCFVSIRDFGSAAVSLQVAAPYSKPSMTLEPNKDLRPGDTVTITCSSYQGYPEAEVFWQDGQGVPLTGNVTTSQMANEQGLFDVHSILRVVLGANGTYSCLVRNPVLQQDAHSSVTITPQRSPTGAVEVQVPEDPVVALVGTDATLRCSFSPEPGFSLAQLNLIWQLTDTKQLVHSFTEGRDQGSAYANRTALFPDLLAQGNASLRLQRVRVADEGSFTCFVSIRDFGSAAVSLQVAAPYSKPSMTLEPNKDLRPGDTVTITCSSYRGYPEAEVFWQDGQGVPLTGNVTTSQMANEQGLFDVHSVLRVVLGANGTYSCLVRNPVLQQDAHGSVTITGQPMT
Experimental: (§1) The specific procedures were as follows:
(§2) One day before the experiment, 30 μL of protein dilutions with a final concentration of 2 μg/mL (B7-H1 (i.e., PD-L1), B7-H2, B7-H3, B7-H4, and B7-DC (all proteins were purchased from Sino Biological Inc., catalog numbers 10084-HNAH, 11559-H08H, 11188-H08H, 10738-H08H, and 10292-H08H-B, respectively)) were added to the ELISA plates and the plates were incubated overnight at 4° C. The next day, the ELISA plate was rinsed three times with PBST, then blocked with 150 μL of PBS containing 5% skim milk powder at room temperature for 2 hours. […] The plates were washed three times with PBST, and 30 μL of 1:7000 diluted anti-human IgG Fc-HRP secondary antibody was added per well, followed by incubation at room temperature for 30 minutes. After washing the plate six times with PBST, TMB was added for color development, and the reaction was terminated by adding 2M HCl. The absorbance was read at a wavelength of 450 nm using a microplate reader (Molecular Devices, SpecterMax 190).

[2] = molecular target: T4, B7-DC protein (Sino Biological, 10292-H08H-B) (UniProt Q9BQ51 20-220); test: as above
T4 construct: Bought protein
T4 sequence (looked up): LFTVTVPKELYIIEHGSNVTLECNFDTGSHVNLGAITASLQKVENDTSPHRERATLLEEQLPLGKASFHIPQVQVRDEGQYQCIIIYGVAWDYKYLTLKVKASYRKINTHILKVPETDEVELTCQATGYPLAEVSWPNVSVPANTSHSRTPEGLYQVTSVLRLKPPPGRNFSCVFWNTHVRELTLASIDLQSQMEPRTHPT
Experimental: as §1, §2

[3] = molecular target: T5, B7-H2 protein (Sino Biological, 11559-H08H) (UniProt O75144 19-258); test: as above
T5 construct: Bought protein
T5 sequence (looked up): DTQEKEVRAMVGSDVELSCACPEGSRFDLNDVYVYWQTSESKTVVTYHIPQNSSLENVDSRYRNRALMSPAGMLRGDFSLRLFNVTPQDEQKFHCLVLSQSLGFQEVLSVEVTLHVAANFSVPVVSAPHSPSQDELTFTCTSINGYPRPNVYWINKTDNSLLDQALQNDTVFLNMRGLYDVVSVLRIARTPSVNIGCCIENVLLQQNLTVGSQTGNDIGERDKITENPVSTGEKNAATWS
Experimental: as §1, §2

[4] = molecular target: T6, B7-H4 protein (Sino Biological, 10738-H08H) (UniProt Q7Z7D3 25-258); test: as above
T6 construct: Bought protein
T6 sequence (looked up): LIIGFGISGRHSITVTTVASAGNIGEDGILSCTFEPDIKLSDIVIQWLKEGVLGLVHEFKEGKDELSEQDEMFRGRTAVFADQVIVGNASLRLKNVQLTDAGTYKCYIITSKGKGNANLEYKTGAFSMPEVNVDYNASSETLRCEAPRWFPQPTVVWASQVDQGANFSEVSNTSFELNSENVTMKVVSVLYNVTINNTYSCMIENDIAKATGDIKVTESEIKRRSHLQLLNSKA
Experimental: as §1, §2

T1 sequence (Q9NZQ7 19-290): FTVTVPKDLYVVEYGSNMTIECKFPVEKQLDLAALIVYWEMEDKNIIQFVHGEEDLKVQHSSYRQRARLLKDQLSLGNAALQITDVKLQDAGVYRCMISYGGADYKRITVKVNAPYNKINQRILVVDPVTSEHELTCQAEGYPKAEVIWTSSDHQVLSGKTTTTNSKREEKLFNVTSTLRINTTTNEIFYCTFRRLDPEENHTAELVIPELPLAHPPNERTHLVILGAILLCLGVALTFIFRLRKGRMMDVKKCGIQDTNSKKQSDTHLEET
T2 sequence (Q9EP73 19-290): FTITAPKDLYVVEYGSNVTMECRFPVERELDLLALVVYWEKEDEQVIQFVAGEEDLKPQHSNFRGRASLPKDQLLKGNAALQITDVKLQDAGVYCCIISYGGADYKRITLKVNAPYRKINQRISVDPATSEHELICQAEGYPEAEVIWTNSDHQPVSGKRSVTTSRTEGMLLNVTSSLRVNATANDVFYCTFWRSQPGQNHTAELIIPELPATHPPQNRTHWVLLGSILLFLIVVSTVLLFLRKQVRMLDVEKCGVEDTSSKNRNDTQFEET

binding result (human PD-L1 on cells): binds
binding result (mouse PD-L1 on cells): binds
binding result [1]: no binding
binding result [2]: no binding
binding result [3]: no binding
binding result [4]: no binding
B1: m18 (antibody, human IgG1, V domains shown)
VH: EVQLVESGGGLVQPGGSLRLSCAASRTDSNIHGMHWYRQAPGKGREWVGMIFIDGNTIVTDSVKGRFTISRDNAKNTLYLQMNTLRAEDTAVYYCAADSRGYGRAWGQGTTVTVSS
notes: also called antibody m18; anti-PD-L1 antibody m18
